Reference: US20220112269A1 (WISCONSIN ALUMNI RESEARCH FOUNDATION, published 2022)
Residue numbers refer to the chain shown, from its start. Names may count otherwise. Non-standard residues stand in square brackets, D forms with d. No end group written: not given here. Hyp = O=C(O)[C@@H]1C[C@@H](O)CN1

Experiments:
[1] = biological target: the molecule itself; experiment: AUC, CD, AFM, TEM, self-assembly
[2] = biological target: the molecule itself; experiment: CD, TEM, DLS, rheology, self-assembly
[3] = biological target: the molecule itself; experiment: CD, TEM, DLS, self-association without fibers
[4] = biological target: the molecule itself; experiment: AUC, CD, DLS, self-assembly
AUC, CD, self-assembly = biological target: the molecule itself; experiment: AUC, CD, self-assembly
[5] = biological target: the molecule itself; experiment: sedimentation equilibrium AUC, monomer + multimer model, 15000 rpm, 4 C; self-assembly, lower bound
Method: Sedimentation equilibrium experiments were performed at the UW BIF with an XL-A analytical ultracentrifuge from Beckman Coulter (Brea, Calif.) equipped with an An-60 Ti rotor. Samples were prepared at 0.6 mg/mL in 10 mM sodium phosphate buffer, pH 7.0, but were diluted to 0.3 mg/mL prior to the experiment. Sample (100 μL) and matching buffer (110 μL) were placed in a cell with an Epon 12-mm double-sector charcoal-filled centerpiece from Beckman Coulter. Experiments were run at 4° C. for more than 7 days at speeds of 8.8, 15, 25, 36, and 60 k rpm, and gradients recorded at 231 nm were monitored until superimposable 4 h apart. A buffer density of 1.0011 g/mL and a partial specific volume of 0.6955 mL/g calculated based on amino-acid content was used for analysis. Equilibrium gradients at 4° C. were modeled as single and multiple non-interacting species through nonlinear least-squares fits to gradient data. Analysis was performed with programs written for IGOR PRO software from WaveMetrics (Lake Oswego, Oreg.) by Dr. D. R. McCaslin (UW BIF). Non-sedimenting baselines between 0.04-0.07 OD were applied for all samples during analysis.

CD, DLS, self-assembly = biological target: the molecule itself; experiment: CD, DLS, self-assembly
[6] = biological target: the molecule itself; experiment: CD, TEM, DLS, self-assembly of the disulfide-linked dimer
[7] = biological target: the molecule itself; experiment: CD, DLS, rheology, self-assembly
[8] = biological target: the molecule itself; experiment: CD, TEM, DLS, self-assembly
CD, TEM, self-assembly = biological target: the molecule itself; experiment: CD, TEM, self-assembly

Protein: P[Hyp]GP[Hyp]GP[Hyp]GP[Hyp]GPKGPKGPKGPKGP[Hyp]GP[Hyp]GD[Hyp]GD[Hyp]GD[Hyp]GD[Hyp] (nT=14, printed without the last Gly) [4sb-OKD]
- binding result [1]: binds

Protein: P[Hyp]GP[Hyp]GPKGPKGPKGPKGP[Hyp]GP[Hyp]GD[Hyp]GD[Hyp]GD[Hyp]GD[Hyp]GP[Hyp]GP[Hyp]G (nT=14) [4sbG-OKDO]
- binding result [2]: binds

Protein: P[Hyp]GP[Hyp]GPKGPKGPKGP[Hyp]GPKGP[Hyp]GP[Hyp]GD[Hyp]GP[Hyp]GD[Hyp]GD[Hyp]GD[Hyp]G (nT=14) [4sbG-OKD2ctrl]
- binding result [3]: binds

Protein: PKGPKGPKGP[Hyp]GP[Hyp]GD[Hyp]GD[Hyp]GD[Hyp]GP[Hyp]GP[Hyp]GP[Hyp] (not fully specified (C-terminus), nT=11, printed without the last Gly) [3sb-KDO]
- binding result [4]: binds

Protein: PKGPKGPKGP[Hyp]GP[Hyp]GD[Hyp]GD[Hyp]GD[Hyp]GP[Hyp]GP[Hyp]GP[Hyp]G (nT=11) [3sbG-KDO]
- binding result (AUC, CD, self-assembly): binds

B1: 4sbG-OKD ("OKD") (peptide)
peptide: PXGPXGPXGPXGPKGPKGPKGPKGPXGPXGDXGDXGDXGDXG
modifications: O = 4-hydroxyproline (Hyp)
notes: Synthetic 42-residue collagen-mimetic peptide (nT=14)
- Average oligomerization by AUC [5]: > 188 -mer

Protein: PXGPXGPXGPKGPKGPKGPKGXXGPXGDXGDXGDXGDXGPXG (O = 4-hydroxyproline (Hyp); Hcy = homocysteine, Single Hcy-bearing peptide, nT=14) [OKD2-h22]
- binding result (CD, DLS, self-assembly): binds

B2: OKD2-OKD2 (peptide)
chain 1: B1 peptide with X11K, P22X, K23X, P28D, D40P
chain 2: B1 peptide with X8C, X11K, K23X, P28D, D40P
modifications: O = 4-hydroxyproline (Hyp); Cys in an interstrand disulfide bridge with Hcy of the other chain; O = 4-hydroxyproline (Hyp); Hcy = homocysteine, in an interstrand disulfide bridge with Cys of the other chain
notes: Disulfide-linked dimer (nT 14-14)
- binding result [6]: binds

Protein: PXGPXGPCGPKGPKGPKGPKGPXGPXGDXGDXGDXGDXGPXG (O = 4-hydroxyproline (Hyp), Single Cys-bearing peptide, nT=14) [OKD2-C8]
- binding result (CD, DLS, self-assembly): binds

Protein: PXGPXGPXGPKGPKGPKGPKGPXGPXGDXGDXGDXGDXGPXG (O = 4-hydroxyproline (Hyp), nT=14) [4sbG-OKD2]
- binding result [2]: binds

Protein: P[Hyp]GP[Hyp]GP[Hyp]GPKGPKGPKGP[Hyp]GPKGP[Hyp]GD[Hyp]GD[Hyp]GD[Hyp]GP[Hyp]GD[Hyp]G (nT=14) [4sbG-gap4]
- binding result [7]: binds

Protein: P[Hyp]GPKGPKGPKGPKGP[Hyp]GP[Hyp]GD[Hyp]GD[Hyp]GD[Hyp]GD[Hyp]GP[Hyp]GP[Hyp]GP[Hyp]G (nT=14) [4sbG-KDO2]
- binding result [8]: binds

Protein: P[Hyp]GP[Hyp]GP[Hyp]GPKGPKGPKGP[Hyp]GP[Hyp]GD[Hyp]GD[Hyp]GD[Hyp]G (nT=11) [3sbG-OKD]
- binding result (CD, TEM, self-assembly): binds

Protein: P[Hyp]GP[Hyp]GP[Hyp]GPKGPKGPKGP[Hyp]GP[Hyp]GD[Hyp]GD[Hyp]GD[Hyp] (nT=11, printed without the last Gly) [3sb-OKD]
- binding result (AUC, CD, self-assembly): binds
